Assay results published in patent US20130171069A1.
Ends that are not written are not given here.

Biological target: synthetic amylospheroid (synthetic ASPD) (UniProt P05067)
Experiment: SPR; biotinylated peptide on the chip, ASPD as ligand

| Kd [nM] | kon [M⁻¹ s⁻¹] | Binder |
| --- | --- | --- |
| 88.5 |  | HLNWLSWFPSRH-biotin [C-terminal biotinylated AAT03 …] |
| 82.4 |  | HLNWWHSWYPAR-biotin [C-terminal biotinylated AAT02 …] |
| 57.7 | 7640 | HFNWYNLWRVQY-biotin [C-terminal biotinylated AAT01 …] |
